Assay results as given in the Immune Epitope Database (IEDB).

How the values were obtained:
HLA-A*02:06 = assay: IEDB peptide-MHC binding, purified MHC/competitive/radioactivity; filed as Kd, often an IC50 or EC50 that approximates it; ≥ and ≤ were set here for values at or beyond the usual limits of such assays
HLA-A*02:02 = assay: as above; conditions: source organism: Lymphocytic choriomeningitis virus (strain Armstrong) (clone 53b)
HLA-A*02:03 = assay: as above; conditions: source organism: Lymphocytic choriomeningitis virus (strain Armstrong) (clone 53b)
HLA-A*68:02 = assay: as above
HLA-A*11:01 = assay: IEDB peptide-MHC binding, purified MHC/competitive/fluorescence; ≥ and ≤ were set here for values at or beyond the usual limits of such assays
HLA-B*15:01 = assay: IEDB peptide-MHC binding, purified MHC/competitive/radioactivity; filed as Kd, often an IC50 or EC50 that approximates it; ≥ and ≤ were set here for values at or beyond the usual limits of such assays
HLA-A*03:01 = assay: IEDB peptide-MHC binding, purified MHC/competitive/fluorescence; filed as Kd, often an IC50 or EC50 that approximates it; ≥ and ≤ were set here for values at or beyond the usual limits of such assays
HLA-A*23:01 = assay: IEDB peptide-MHC binding, purified MHC/competitive/radioactivity; filed as Kd, often an IC50 or EC50 that approximates it; ≥ and ≤ were set here for values at or beyond the usual limits of such assays
HLA-A*24:02 [1] = assay: IEDB peptide-MHC binding, purified MHC/competitive/fluorescence; ≥ and ≤ were set here for values at or beyond the usual limits of such assays; conditions: source organism: Zaire ebolavirus
HLA-B*35:01 = assay: IEDB peptide-MHC binding, purified MHC/competitive/radioactivity; filed as Kd, often an IC50 or EC50 that approximates it; ≥ and ≤ were set here for values at or beyond the usual limits of such assays; conditions: source organism: Dengue virus 3 Martinique/1243/1999
HLA-B*07:02 = assay: as above
HLA-B*51:01 = assay: as above
HLA-B*53:01 = assay: as above
HLA-A*24:03 = assay: IEDB peptide-MHC binding, purified MHC/direct/fluorescence; filed as Kd, often an IC50 or EC50 that approximates it; ≥ and ≤ were set here for values at or beyond the usual limits of such assays; conditions: source organism: Salmonella enterica
HLA-A*24:02 [2] = assay: IEDB peptide-MHC binding, purified MHC/competitive/radioactivity; filed as Kd, often an IC50 or EC50 that approximates it; ≥ and ≤ were set here for values at or beyond the usual limits of such assays; conditions: source organism: Dengue virus 3 Martinique/1243/1999
HLA-A*26:01 = assay: as above; conditions: source organism: Dengue virus 3 Martinique/1243/1999
HLA-A*30:01 = assay: as above; conditions: source organism: Dengue virus 1 Brazil/97-11/1997
HLA-A*32:01 = assay: as above
HLA-A*30:02 = assay: as above; conditions: source organism: Dengue virus 3 Martinique/1243/1999
HLA-B*18:01 = assay: as above
HLA-B*40:01 = assay: as above
HLA-B*44:02 = assay: as above
HLA-B*45:01 = assay: as above
HLA-B*40:02 = assay: as above
HLA-B*44:03 = assay: as above
[3] = source organism: Lymphocytic choriomeningitis virus (strain Armstrong) (clone 53b)
[4] = source organism: Vaccinia virus WR
[5] = source organism: Dengue virus 3 Martinique/1243/1999
[6] = source organism: Dengue virus 4 Philippines/H241/1956
[7] = source organism: Dengue virus 4 Dominica/814669/1981
[8] = source organism: Zaire ebolavirus
[9] = source organism: Dengue virus 1 Brazil/97-11/1997
[10] = source organism: Dengue virus 2 Peru/IQT2913/1996
[11] = source organism: Vaccinia virus Copenhagen
[12] = source organism: SARS coronavirus Tor2
[13] = source organism: Dengue virus 2 16681-PDK53
[14] = source organism: Lymphocytic choriomeningitis virus (strain WE)

ALPHIIDEV
Kd (HLA-A*02:06; [3]): 0.066 µM | Kd (HLA-A*02:02): 0.013 µM | Kd (HLA-A*02:03): 0.00034 µM | Kd (HLA-A*68:02; [3]): 0.179 µM

ANGSLFTEQ
IC50 (HLA-A*11:01; [4]): ≥ 104 µM

AQMWSLMYF
Kd (HLA-A*02:06; [5]): 0.0128 µM | Kd (HLA-B*15:01; [5]): 0.00033 µM

ATYQRTRALVR
Kd (HLA-A*03:01; source organism: Influenza A virus (A/swine/Italy/1509-6/97(H1N1))): 0.0389 µM

CLIPTAMAF
Kd (HLA-B*15:01; [6]): 0.00943 µM | Kd (HLA-A*23:01; [6]): 0.451 µM

CLIPTVMAF
Kd (HLA-B*15:01; [7]): 0.00064 µM | Kd (HLA-A*23:01; [7]): 0.0819 µM

ELDSNLYRI
Kd (HLA-A*68:02; source organism: Homo sapiens): 0.916 µM

ESHNQTFLI
Kd (HLA-A*68:02; source organism: Dengue virus 2 Jamaica/1409/1983): 0.00351 µM

ETPNLAERV
Kd (HLA-A*68:02; source organism: Dengue virus 1 Singapore/S275/1990): 0.0248 µM

EYPPWLTEK
IC50 (HLA-A*24:02 [1]): 9.58 µM | IC50 (HLA-A*11:01; [8]): ≥ 123 µM

FLWWGKWRK
Kd (HLA-A*03:01; source organism: Brucella abortus str. 2308 A): 0.0031 µM

FPYSIPATLL
Kd (HLA-B*35:01): 0.131 µM | Kd (HLA-B*07:02; [5]): 0.028 µM | Kd (HLA-B*51:01; [5]): 0.325 µM | Kd (HLA-B*53:01; [5]): 0.00997 µM

GTAKLRWFV
Kd (HLA-A*68:02; [9]): 0.0307 µM

HHQINYHGF
Kd (HLA-A*24:03): 0.965 µM

HMIAGVFFTF
Kd (HLA-A*24:02 [2]): 0.0989 µM | Kd (HLA-B*15:01; [5]): 0.00147 µM | Kd (HLA-A*23:01; [5]): 0.0289 µM | Kd (HLA-A*26:01): ≥ 32.8 µM

IPTVMAFHL
Kd (HLA-B*07:02; [10]): 0.596 µM | Kd (HLA-B*51:01; [10]): 5.51 µM | Kd (HLA-B*53:01; [10]): 0.0489 µM

KLLEGEESRI
Kd (HLA-A*68:02; source organism: Homo sapiens): ≥ 60 µM

KLSSEQLSK
Kd (HLA-A*03:01; source organism: Trypanosoma cruzi): 0.108 µM

KMRPMFAVG
Kd (HLA-B*15:01; [9]): 0.0346 µM | Kd (HLA-A*30:01): 0.0147 µM

LLAISAVYF
Kd (HLA-B*15:01; [4]): 0.0317 µM

LLYTANFTF
Kd (HLA-B*15:01; [4]): 0.00243 µM | Kd (HLA-A*32:01; [4]): 0.00672 µM

LMRSICVSI
Kd (HLA-B*15:01; [11]): 0.0634 µM | Kd (HLA-A*32:01; [11]): 0.38 µM

MAVGLVSILA
Kd (HLA-A*68:02; [5]): 0.00323 µM

MVHQIFGSAY
Kd (HLA-B*35:01): 0.018 µM | Kd (HLA-B*15:01; [5]): 0.0372 µM | Kd (HLA-A*26:01): 0.0116 µM | Kd (HLA-A*30:02): ≥ 61.9 µM

NISGQSPAR
IC50 (HLA-A*11:01; [8]): 47.6 µM

PNRSTKGGQ
IC50 (HLA-A*11:01; [8]): 46.5 µM

QELYSPLFL
Kd (HLA-B*18:01; [12]): 5.57 µM | Kd (HLA-B*40:01; [12]): 0.102 µM | Kd (HLA-B*44:02; [12]): 0.205 µM | Kd (HLA-B*45:01; [12]): 2.21 µM | Kd (HLA-B*40:02; [12]): 0.155 µM | Kd (HLA-B*44:03; [12]): 0.222 µM

QPENLEYTIV
Kd (HLA-B*07:02; [13]): 4.62 µM | Kd (HLA-B*51:01; [13]): ≥ 69.6 µM

REPTDQKQF
Kd (HLA-B*18:01; [14]): ≥ 77.5 µM | Kd (HLA-B*40:01; [14]): ≥ 20.4 µM | Kd (HLA-B*44:02; [14]): 1.34 µM | Kd (HLA-B*45:01; [14]): ≥ 77.7 µM | Kd (HLA-B*40:02; [14]): 6.29 µM | Kd (HLA-B*44:03; [14]): 8.94 µM

REVLSDREL
Kd (HLA-B*18:01; [12]): 7.33 µM | Kd (HLA-B*40:01; [12]): 0.0156 µM | Kd (HLA-B*44:02; [12]): 1.22 µM | Kd (HLA-B*45:01; [12]): 1.39 µM | Kd (HLA-B*40:02; [12]): 0.102 µM | Kd (HLA-B*44:03; [12]): 1.12 µM

REVSTAAVT
Kd (HLA-B*18:01; [12]): 16.9 µM | Kd (HLA-B*40:01; [12]): 0.112 µM | Kd (HLA-B*44:02; [12]): 16 µM | Kd (HLA-B*45:01; [12]): 0.0303 µM | Kd (HLA-B*40:02; [12]): ≥ 21.1 µM | Kd (HLA-B*44:03; [12]): 6.86 µM

RIKGMSYTM
Kd (HLA-B*15:01; [6]): 0.0322 µM | Kd (HLA-A*32:01; [6]): 0.0374 µM
